This note sets out measurements from article PMC10397247.

For assay [1], the target named is T1, 4H883-bN.
T1 chain: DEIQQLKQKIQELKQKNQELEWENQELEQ
The experiment in a line: two-hybrid library CCNG1.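 Note: natural log of median RNA to DNA barcode read ratio; higher means stronger binding.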

Assay [2] has as its target T2, 4H568-bN.
T2 chain: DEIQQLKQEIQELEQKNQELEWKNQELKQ
Nature of the assay: two-hybrid library CCNG1.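 Note: natural log of median RNA to DNA barcode read ratio; higher means stronger binding.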

The target in assay [3] is T3, 4H918-bN.
T3 chain: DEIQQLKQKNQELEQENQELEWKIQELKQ
Nature of the assay: two-hybrid library CCNG1.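 Note: natural log of median RNA to DNA barcode read ratio; higher means stronger binding.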

Assay [4] addresses T4, 4H2729-bN.
T4 chain: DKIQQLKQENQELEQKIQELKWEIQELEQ
The experiment in a line: two-hybrid library CCNG1.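 Note: natural log of median RNA to DNA barcode read ratio; higher means stronger binding.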

For assay [5], the target named is T5, 4H754-bN.
T5 chain: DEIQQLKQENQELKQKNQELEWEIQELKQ
The experiment in a line: two-hybrid library CCNG1.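 Note: natural log of median RNA to DNA barcode read ratio; higher means stronger binding.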

Assay [6] concerns the target T6, 4H2667-bN.
T6 chain: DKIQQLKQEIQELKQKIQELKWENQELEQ
Nature of the assay: two-hybrid library CCNG1.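 Note: natural log of median RNA to DNA barcode read ratio; higher means stronger binding.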

For assay [7], the target named is T7, 4H72-bN.
T7 chain: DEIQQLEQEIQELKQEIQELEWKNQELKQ
Nature of the assay: two-hybrid library CCNG1.

Assay [8] concerns the target T8, 4H967-bN.
T8 chain: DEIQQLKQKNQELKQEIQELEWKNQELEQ
Nature of the assay: two-hybrid library CCNG1.

Assay [9] deals with T9, 4H2618-bN.
T9 chain: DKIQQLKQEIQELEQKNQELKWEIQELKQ
Nature of the assay: two-hybrid library CCNG1.

The target of assay [10] is T10, 4H338-bN.
T10 chain: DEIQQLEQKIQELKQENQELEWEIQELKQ
The experiment in a line: two-hybrid library CCNG1.

Assay [11] concerns the target T11, 4H3185-bN.
T11 chain: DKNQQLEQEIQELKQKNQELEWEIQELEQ
Nature of the assay: two-hybrid library CCNG1.

Assay [12] concerns the target T12, 4H908-bN.
T12 chain: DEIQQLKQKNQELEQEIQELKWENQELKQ
Nature of the assay: two-hybrid library CCNG1.

The target in assay [13] is T13, 4H3782-bN.
T13 chain: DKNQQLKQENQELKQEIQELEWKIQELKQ
The experiment in a line: two-hybrid library CCNG1.

Assay [14] addresses T14, 4H3628-bA.
T14 chain: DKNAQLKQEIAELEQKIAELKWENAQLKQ
The experiment in a line: two-hybrid library CCNG1.

Assay [15] addresses T15, 4H4001-bN.
T15 chain: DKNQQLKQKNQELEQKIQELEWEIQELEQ
The experiment in a line: two-hybrid library CCNG1.

Assay [16] has as its target T16, 4H3855-bN.
T16 chain: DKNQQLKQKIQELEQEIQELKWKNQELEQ
The experiment in a line: two-hybrid library CCNG1.

The target in assay [17] is T17, 4H797-bN.
T17 chain: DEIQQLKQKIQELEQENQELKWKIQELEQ
The experiment in a line: two-hybrid library CCNG1.

The target in assay [18] is T18, 4H3427-bN.
T18 chain: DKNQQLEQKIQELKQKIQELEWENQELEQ
Nature of the assay: two-hybrid library CCNG1.

For assay [19], the target named is T19, 4H953-bN.
T19 chain: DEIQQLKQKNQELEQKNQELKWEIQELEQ
The experiment in a line: two-hybrid library CCNG1.

Assay [20] has as its target T20, 4H717-bN.
T20 chain: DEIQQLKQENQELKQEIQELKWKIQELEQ
The experiment in a line: two-hybrid library CCNG1.

Assay [21] addresses T21, 4H687-bN.
T21 chain: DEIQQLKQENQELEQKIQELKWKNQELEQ
The experiment in a line: two-hybrid library CCNG1.

In assay [22] the target is T22, 4H607-bN.
T22 chain: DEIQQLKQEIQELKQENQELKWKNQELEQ
The experiment in a line: two-hybrid library CCNG1.

The target of assay [23] is T23, 4H3354-bN.
T23 chain: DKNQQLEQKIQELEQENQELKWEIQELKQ
Nature of the assay: two-hybrid library CCNG1.

Assay [24] addresses T24, 4H454-bN.
T24 chain: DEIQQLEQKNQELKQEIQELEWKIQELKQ
Nature of the assay: two-hybrid library CCNG1.

Assay [25] has as its target T25, 4H331-bN.
T25 chain: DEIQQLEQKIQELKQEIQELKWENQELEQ
The experiment in a line: two-hybrid library CCNG1.

In assay [26] the target is T26, 4H3112-bN.
T26 chain: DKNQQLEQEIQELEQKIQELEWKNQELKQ
The experiment in a line: two-hybrid library CCNG1.

Assay [27] addresses T27, 4H87-AA.
T27 chain: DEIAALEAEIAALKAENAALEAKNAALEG
The experiment in a line: two-hybrid library CCmax.

In assay [28] the target is T28, 4H2985-AA.
T28 chain: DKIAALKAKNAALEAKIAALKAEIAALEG
The experiment in a line: two-hybrid library CCmax. The note with it: mean of both orientations.

The target of assay [29] is T29, 4H233-AA.
T29 chain: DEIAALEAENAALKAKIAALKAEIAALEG
Nature of the assay: two-hybrid library CCmax.

Assay [30] has as its target T30, 4H2873-AA.
T30 chain: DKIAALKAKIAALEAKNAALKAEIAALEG
Nature of the assay: two-hybrid library CCmax. The settings on record: mean of both orientations.

For assay [31], the target named is T31, 4H2705-AA.
T31 chain: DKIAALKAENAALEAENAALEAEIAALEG
Nature of the assay: two-hybrid library CCmax. The settings on record: mean of both orientations.

The target in assay [32] is T32, 4H3940-AA.
T32 chain: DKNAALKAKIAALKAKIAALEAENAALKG
The experiment in a line: two-hybrid library CCmax. The settings on record: mean of both orientations.

Assay [33] concerns the target T33, 4H2646-AA.
T33 chain: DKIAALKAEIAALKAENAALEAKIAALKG
The experiment in a line: two-hybrid library CCmax. The settings on record: mean of both orientations.

Assay [34] deals with T34, 4H3134-AA.
T34 chain: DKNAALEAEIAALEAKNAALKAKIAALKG
The experiment in a line: two-hybrid library CCmax. The note with it: mean of both orientations.

Assay [35] concerns the target T35, 4H775-AA.
T35 chain: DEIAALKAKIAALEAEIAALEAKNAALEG
The experiment in a line: two-hybrid library CCmax. The note with it: mean of both orientations.

The target in assay [36] is T36, 4H3595-AA.
T36 chain: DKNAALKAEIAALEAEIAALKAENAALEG
The experiment in a line: two-hybrid library CCmax.

Assay [37] concerns the target T37, 4H2512-AA.
T37 chain: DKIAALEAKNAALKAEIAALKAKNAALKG
The experiment in a line: two-hybrid library CCmax. The settings on record: mean of both orientations.

In assay [38] the target is T38, 4H2758-AA.
T38 chain: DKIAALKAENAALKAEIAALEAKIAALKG
Nature of the assay: two-hybrid library CCmax. The settings on record: mean of both orientations.

Assay [39] concerns the target T39, 4H3409-AA.
T39 chain: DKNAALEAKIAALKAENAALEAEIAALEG
Nature of the assay: two-hybrid library CCmax.

For assay [40], the target named is T40, 4H510-AA.
T40 chain: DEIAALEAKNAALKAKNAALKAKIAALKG
The experiment in a line: two-hybrid library CCmax. The settings on record: mean of both orientations.

In assay [41] the target is T41, 4H3625-AA.
T41 chain: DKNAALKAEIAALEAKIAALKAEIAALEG
The experiment in a line: two-hybrid library CCmax. The settings on record: mean of both orientations.

Assay [42] has as its target T42, 4H2687-AA.
T42 chain: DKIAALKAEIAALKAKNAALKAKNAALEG
Nature of the assay: two-hybrid library CCmax. The settings on record: mean of both orientations.

Assay [43] deals with T43, 4H816-AA.
T43 chain: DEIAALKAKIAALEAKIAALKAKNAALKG
The experiment in a line: two-hybrid library CCmax. The settings on record: mean of both orientations.

Assay [44] deals with T44, 4H390-AA.
T44 chain: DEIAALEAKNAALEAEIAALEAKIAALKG
Nature of the assay: two-hybrid library CCmax. The settings on record: mean of both orientations.

The target of assay [45] is T45, 4H278-AA.
T45 chain: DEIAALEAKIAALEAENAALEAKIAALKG
Nature of the assay: two-hybrid library CCmax. The note with it: mean of both orientations.

B1: 4H2618-bN (peptide)
chain: DKIQQLKQEIQELEQKNQELKWEIQELKQ
As to B1, the interaction score in [1] was 0.595; in assay [2] it was -1.88; in [3], 0.558; in assay [4], 1.51; in assay [5], -0.67; in assay [6], -0.229. In addition, the interaction score in assay [7] was -0.128; in assay [8], -1.39; in assay [9], 0.45; in assay [10], 0.959; in assay [11] it was 0.0545; in assay [12] it was -1.09. Also, the interaction score is -0.594 in [13]; 0.00803 in assay [14]; -0.538 in [15]; -0.781 in assay [16]; -0.249 in assay [17]; 0.0822 in [18]. The interaction score in [19] was -1.12; in assay [20] it was -0.442; in [21] it was -0.758; in [22], -0.0391; in assay [23] it was -0.374; in assay [24], 0.067. The interaction score is -0.0801 in assay [25] and -0.924 in [26].

B2: 4H233-AA (peptide)
chain: DEIAALEAENAALKAKIAALKAEIAALEG
For B2, the interaction score in [27] was -1.84; in assay [28], 0.682; in assay [29] it was 1.43; in [30], -0.478; in assay [31], 1; in [32], -1.57. Besides, the interaction score in assay [33] is 1.88; in assay [34] it was -0.974; in assay [35], -1.43; in assay [36], 0.594; in assay [37], 0.368; in [38] it was 1.97. In addition, the interaction score in assay [39] was 1.43; in assay [40], -1.24; in assay [41] it was -0.183; in [42], -1.45; in [43], -0.563; in [44], 2.39. The same molecule returned an interaction score in assay [45] of 1.7.
